Data taken from article PMC9482650, “Quantitative fragmentomics allow affinity mapping of interactomes” (Nature Communications, 2022).

What was measured:
Experiment in all cases: holdup assay
Parameters in all cases: key: below the threshold = too weak to quantify, mostly under pKd 3.1 to 4
Details in all cases: plain residues with an end cap or a label only (N-terminal biotin on a linker: ado-ado)
[1] = target: TJP2_1, Q9UDY2
[2] = target: LAP2, Q96RT1
[3] = target: DLG4_3, P78352
[4] = target: DLG1_3, Q12959
[5] = target: T1, SYNJ2BP, P57105
T1 sequence (P57105 8-110, limits assumed, looked up): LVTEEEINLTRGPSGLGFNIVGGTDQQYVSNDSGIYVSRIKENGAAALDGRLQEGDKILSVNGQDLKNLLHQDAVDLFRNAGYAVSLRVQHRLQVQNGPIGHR

[6] = target: T2, GRIP1_3, Q9Y3R0
T2 sequence (Q9Y3R0 247-346, limits assumed, looked up): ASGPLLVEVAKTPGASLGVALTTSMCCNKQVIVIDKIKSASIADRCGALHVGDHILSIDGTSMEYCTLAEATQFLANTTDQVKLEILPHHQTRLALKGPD

[7] = target: GRID2IP_1, A4D2P6
[8] = target: MAGI2_2, Q86UL8
[9] = target: T3, TJP3_3, O95049
T3 sequence (O95049 375-456, limits assumed, looked up): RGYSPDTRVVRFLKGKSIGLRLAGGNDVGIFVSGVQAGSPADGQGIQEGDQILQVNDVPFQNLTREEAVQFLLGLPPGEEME

[10] = target: T4, LIN7C, Q9NUP9
T4 sequence (Q9NUP9 88-185, limits assumed, looked up): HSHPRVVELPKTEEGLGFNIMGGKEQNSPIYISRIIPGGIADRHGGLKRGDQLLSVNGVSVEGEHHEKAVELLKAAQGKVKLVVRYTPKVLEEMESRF

[11] = target: AHNAK1, Q09666
[12] = target: SCRIB_2, Q14160
[13] = target: T5, CARD11, Q9BXL7
T5 sequence (Q9BXL7 662-765, limits assumed, looked up): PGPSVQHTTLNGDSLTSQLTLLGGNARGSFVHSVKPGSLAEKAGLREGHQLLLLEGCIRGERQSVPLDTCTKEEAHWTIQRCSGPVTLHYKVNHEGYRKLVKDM

[14] = target: T6, APBA1_2, Q02410
T6 sequence (Q02410 742-832, limits assumed, looked up): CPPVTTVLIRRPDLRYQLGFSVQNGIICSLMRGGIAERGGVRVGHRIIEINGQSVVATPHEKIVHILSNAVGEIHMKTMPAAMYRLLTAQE

[15] = target: GORASP2, Q9H8Y8
[16] = target: FRMPD3, Q5JV73
[17] = target: PDZRN4_1, Q6ZMN7
[18] = target: SCRIB_1, Q14160
[19] = target: GRIP2_7, Q9C0E4
[20] = target: T7, GRIP1_2, Q9Y3R0
T7 sequence (Q9Y3R0 145-248, limits assumed, looked up): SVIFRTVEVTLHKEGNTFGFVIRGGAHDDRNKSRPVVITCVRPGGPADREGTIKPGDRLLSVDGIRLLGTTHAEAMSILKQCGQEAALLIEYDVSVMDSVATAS

[21] = target: T8, DFNB31_3, Q9P202
T8 sequence (Q9P202 811-907, limits assumed, looked up): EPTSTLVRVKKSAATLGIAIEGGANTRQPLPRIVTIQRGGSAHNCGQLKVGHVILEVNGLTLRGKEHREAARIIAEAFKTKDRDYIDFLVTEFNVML

[22] = target: HTRA2, O43464
[23] = target: GRIP2_3, Q9C0E4
[24] = target: T9, GRIP1_5, Q9Y3R0
T9 sequence (Q9Y3R0 568-668, limits assumed, looked up): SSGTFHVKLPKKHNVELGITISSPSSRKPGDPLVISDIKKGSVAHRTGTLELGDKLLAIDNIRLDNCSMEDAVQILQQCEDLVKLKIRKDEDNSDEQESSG

[25] = target: MAGI2_4, Q86UL8
[26] = target: T10, MPP7, Q5T2T1
T10 sequence (Q5T2T1 134-230, limits assumed, looked up): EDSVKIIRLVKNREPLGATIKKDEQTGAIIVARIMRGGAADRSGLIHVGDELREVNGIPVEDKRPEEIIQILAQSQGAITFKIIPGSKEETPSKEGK

[27] = target: SNX27, Q96L92

Measured: pKd

Sequence of PDZRN4_1, Q6ZMN7 (Q6ZMN7 213-318): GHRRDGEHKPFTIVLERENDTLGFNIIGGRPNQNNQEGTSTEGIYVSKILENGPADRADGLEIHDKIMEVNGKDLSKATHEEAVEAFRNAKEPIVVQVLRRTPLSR
Sequence of GRID2IP_1, A4D2P6 (A4D2P6 1-87): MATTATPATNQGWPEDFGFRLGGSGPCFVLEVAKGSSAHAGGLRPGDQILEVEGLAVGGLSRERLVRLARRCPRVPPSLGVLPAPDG
Sequence of HTRA2, O43464 (O43464 355-458): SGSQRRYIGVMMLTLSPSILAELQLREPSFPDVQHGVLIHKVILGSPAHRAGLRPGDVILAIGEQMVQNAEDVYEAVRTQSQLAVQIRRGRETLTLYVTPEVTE
Sequence of MAGI2_4, Q86UL8 (Q86UL8 772-865): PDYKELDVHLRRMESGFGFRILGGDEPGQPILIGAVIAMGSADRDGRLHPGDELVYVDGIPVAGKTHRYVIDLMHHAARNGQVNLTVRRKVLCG
Sequence of GRIP2_3, Q9C0E4 (Q9C0E4 238-339): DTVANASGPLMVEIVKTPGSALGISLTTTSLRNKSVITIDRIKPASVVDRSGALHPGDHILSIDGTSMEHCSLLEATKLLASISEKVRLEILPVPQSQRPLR
Sequence of SCRIB_2, Q14160 (Q14160 857-960): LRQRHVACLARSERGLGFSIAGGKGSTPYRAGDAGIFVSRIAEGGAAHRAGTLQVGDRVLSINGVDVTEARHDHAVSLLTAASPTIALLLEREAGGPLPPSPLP
Sequence of TJP2_1, Q9UDY2 (Q9UDY2 24-128): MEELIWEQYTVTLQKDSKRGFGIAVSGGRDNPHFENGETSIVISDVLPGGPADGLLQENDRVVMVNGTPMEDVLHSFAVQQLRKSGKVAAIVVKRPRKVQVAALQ
Sequence of MAGI2_2, Q86UL8 (Q86UL8 410-522): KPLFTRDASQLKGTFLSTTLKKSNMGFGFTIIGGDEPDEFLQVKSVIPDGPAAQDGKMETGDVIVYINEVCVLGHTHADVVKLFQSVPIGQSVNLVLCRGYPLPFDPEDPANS
Sequence of FRMPD3, Q5JV73 (Q5JV73 12-100): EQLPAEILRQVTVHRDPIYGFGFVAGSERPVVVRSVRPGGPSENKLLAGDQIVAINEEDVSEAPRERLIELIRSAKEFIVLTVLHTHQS
Sequence of LAP2, Q96RT1 (Q96RT1 other isoform, or with tags, fused parts or gaps): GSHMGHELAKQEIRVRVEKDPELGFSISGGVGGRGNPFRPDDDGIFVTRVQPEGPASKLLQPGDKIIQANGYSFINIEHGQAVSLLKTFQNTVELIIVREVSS
Sequence of GRIP2_7, Q9C0E4 (Q9C0E4 934-1023): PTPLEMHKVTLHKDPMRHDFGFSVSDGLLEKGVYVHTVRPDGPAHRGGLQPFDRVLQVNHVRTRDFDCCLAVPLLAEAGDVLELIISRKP
Sequence of SCRIB_1, Q14160 (Q14160 718-814): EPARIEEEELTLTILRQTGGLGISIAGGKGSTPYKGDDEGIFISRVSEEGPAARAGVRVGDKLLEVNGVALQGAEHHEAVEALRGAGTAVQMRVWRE
Sequence of AHNAK1, Q09666 (Q09666 4-100): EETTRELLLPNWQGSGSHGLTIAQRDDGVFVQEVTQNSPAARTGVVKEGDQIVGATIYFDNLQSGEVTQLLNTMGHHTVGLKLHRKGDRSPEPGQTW
Sequence of DLG1_3, Q12959 (Q12959 457-571): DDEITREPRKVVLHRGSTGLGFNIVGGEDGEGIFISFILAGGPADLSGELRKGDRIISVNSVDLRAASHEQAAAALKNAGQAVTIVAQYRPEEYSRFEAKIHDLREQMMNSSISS
Sequence of DLG4_3, P78352 (P78352 306-403): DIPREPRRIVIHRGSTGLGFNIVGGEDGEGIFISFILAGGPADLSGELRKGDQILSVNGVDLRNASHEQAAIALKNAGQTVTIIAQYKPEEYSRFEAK

TSQESEDTYL [TBC1D10A, Q9BXI6]
3.93: [5]
5.27: [27]
3.54: [2]
4.39: [16]
4: [21]
3.8: [17]
3.99: [18]
below the threshold: all other assays above

AKPSRISTVV [IQSEC2, Q5JU85]
4.68: [25]
4.46: [1]
4.18: [3]
3.58: [18]
3.49: [14]
5.23: [8]
3.98: [27]
4.47: [15]
4.51: [5]
below the threshold: all other assays above

PEYLGLDVPV [ERBB2, P04626]
3.52: [17]
3.94: [27]
3.78: [16]
4.26: [2]
below the threshold: all other assays above

DDENIRTSDV [PLEKHA2, Q9HB19]
4.18: [2]
3.75: [12] | [18]
4.38: [5]
4.84: [27]
below the threshold: all other assays above
